Columns and labels:
Hu/Cy/Rh ROR1-His = molecular target: T1, Hu/Cy/Rh ROR1-His (human/cyno/rhesus, UniProt Q01973 30-403, limits assumed); assay: SPR, purified protein
T1 construct: Purified His-tagged ROR1 protein; also called HUMAN/CYNO/RHESUS ROR-1; not shown: His tag

[1] = molecular target: T2, human ROR-1 endogenously expressed on JeKo-1 and MDA-MB-468 cells (human, UniProt Q01973 30-937); assay: cell-based or functional assay
[2] = molecular target: T2, human ROR-1 endogenously expressed on …; assay: flow cytometry, cell binding saturation on ROR-1 positive cells
Protocol: A cell binding saturation assay was developed to evaluate how well the anti_ROR-1 antibodies developed in Example 28 bound to endogenously expressed extracellular ROR-1 protein on cell lines. […] Cells were then washed and subjected to secondary antibody staining and detection by flow cytometry. Mean fluorescence (MFI) was determined by analysis on cytometer software. […] (See FIG. 27).

Mouse ROR1-His = molecular target: T3, Mouse ROR1-His (mouse, UniProt Q9Z139 30-403, limits assumed); assay: SPR, purified protein
T3 construct: Purified His-tagged mouse ROR1 protein; not shown: His tag
T3 sequence (Q9Z139 30-403 limits assumed): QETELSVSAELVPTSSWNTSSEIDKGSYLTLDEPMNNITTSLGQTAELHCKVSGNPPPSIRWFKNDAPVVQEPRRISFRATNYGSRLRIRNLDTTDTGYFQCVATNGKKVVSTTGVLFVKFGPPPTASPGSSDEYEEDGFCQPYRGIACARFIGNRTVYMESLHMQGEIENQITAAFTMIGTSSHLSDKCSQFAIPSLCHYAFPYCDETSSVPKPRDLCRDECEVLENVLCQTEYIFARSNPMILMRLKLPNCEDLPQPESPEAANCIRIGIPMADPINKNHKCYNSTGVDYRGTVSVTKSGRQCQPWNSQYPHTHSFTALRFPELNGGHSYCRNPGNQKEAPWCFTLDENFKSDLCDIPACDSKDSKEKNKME

| Kd (Hu/Cy/Rh ROR1-His) [nM] | koff (Hu/Cy/Rh ROR1-His) [s⁻¹] | kon (Hu/Cy/Rh ROR1-His) [M⁻¹ s⁻¹] | percent receptor internalization relative to zero hours [1] [%] | saturating concentration [2] [nM] | Kd (Mouse ROR1-His) [nM] | koff (Mouse ROR1-His) [s⁻¹] | kon (Mouse ROR1-His) [M⁻¹ s⁻¹] | Binder |
| --- | --- | --- | --- | --- | --- | --- | --- | --- |
| 10.9 | 0.00295 | 270000 | ≥ 75 | 74 | 45.3 | 0.00132 | 29200 | ATX-P-885 (antibody, human IgG1, kappa, V domains shown, Full length IgG (IgG1, kappa) expressed in HEK293; also called mAb B) VH: QVQLQQWGAGLLKPSETLSLTCAVYGGSFSGYYWSWIRQPPGKGLEWIGEINHSGSTNYNPSLKSRVTISVDTSKNQFSLKLSSVTAADTAVYYCAREGVYEDYWGQGTLVTVSS VL: EIVLTQSPATLSLSPGERATLSCRASQSVSNYLAWYQQKPGQAPRLLIYDAYNRATGIPARFSGSGSGTDFTLTISSLEPEDFAVYYCQQRSNWPLTFGQGTRLEIKR |
|  |  |  |  | 74 |  |  |  | ATX-P-875 (antibody, human IgG1, kappa, V domains shown, Full length IgG (IgG1, kappa) expressed in HEK293; also called mAb A) VH: not shown VL: DIQMTQSPSSLSASVGDRVTITCRASQSISSYLNWYQQKPGKAPKLLIYAASSLQSGVPSRFSGSGSGTDFTLTISSLQPEDFATYYCQQYDNLPITFGQGTRLEIKR |
